Assay results from patent US20250355001A1, “METHOD FOR DETECTING A TAU PROTEIN FRAGMENT IN A SAMPLE” (GTINVENT LIMITED, priority 2022, published 2025).

How the values were obtained:
[1] = system: hT40, dGA, dGAE and truncated tau fragments; experiment: Binding ELISA / epitope mapping of anti-tau scAbs with truncated tau proteins and 13mer peptides; design: species or system human; conditions: for Tau proteins/fragments with positive scAb reactivity / Shortest region bound on hT40: Table 17, 'C' group scAbs; for Tau proteins/fragments with positive scAb reactivity: binding ELISA; for Shortest region bound on hT40: incl. 13mer peptides; for Detection scAb (Epitope): Table 28 (LoD table)
In short: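 Serially double-diluted scAbs were applied to 2% MPBS-blocked wells carrying either 1 μg/ml full-length or truncated tau, or biotinylated 13mer peptides (1 μg/ml) captured on 5 μg/ml streptavidin. Absorbance after HRP anti-human C kappa secondary gave the binding signal.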

[2] = system: 13 aa tau peptides of hT40; experiment: Alanine scanning mutagenesis (ASM) peptide ELISA; format: binding, human; conditions: alanine substituted peptides; numbering SEQ ID NO: 1
Method: Briefly, 5 μg/ml streptavidin (Thermo Fisher) was adsorbed to Nunc 96-well MaxiSorp plates and following incubation at 37° C. for 1 h, the plates were washed as normal and blocked with 2% MPBS. N-terminally biotinylated peptides (Prolmmune Ltd) were added to the plates and incubated for 1 h at 37° C. Subsequently, test scAbs at starting concentrations of 100-500 nM was added and double diluted across the plate for each peptide and incubated for 1 h at 37° C. Rest of the ELISA was conducted as described above and the plates were read at absorbance 450 nm. Immunoreactivity of the scAb of interest was quantified as the % of scAb was bound for each peptide at a chosen concentration (FIG. 15-20).

[3] = biological target: T1, hT40 (T441, SEQ ID NO: 1) (Homo sapiens, UniProt P10636); experiment: Biacore X100 SPR kinetics of scAbs for hT40; format: binding; conditions: Table 23; scAb captured, T441 (hT40) analyte; 1:1 model
T1 construct: Full length tau (hT40)
T1 sequence (P10636 1-441 isoform P10636-8): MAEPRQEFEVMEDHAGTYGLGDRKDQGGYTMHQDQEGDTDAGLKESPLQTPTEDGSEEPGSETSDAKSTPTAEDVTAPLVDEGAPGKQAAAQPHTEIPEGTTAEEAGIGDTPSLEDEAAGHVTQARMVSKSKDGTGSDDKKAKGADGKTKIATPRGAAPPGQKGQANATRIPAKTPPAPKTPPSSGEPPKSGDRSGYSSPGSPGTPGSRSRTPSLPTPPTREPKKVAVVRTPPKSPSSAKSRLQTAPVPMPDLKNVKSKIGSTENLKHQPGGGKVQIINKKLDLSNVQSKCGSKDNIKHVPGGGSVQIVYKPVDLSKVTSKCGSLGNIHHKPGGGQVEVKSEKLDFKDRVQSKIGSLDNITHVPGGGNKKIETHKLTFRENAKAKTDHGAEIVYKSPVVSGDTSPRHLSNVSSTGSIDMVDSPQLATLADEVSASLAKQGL
In short: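 Captured scAb on anti-HuCk CM5 surface (flow cell 1 as reference) in HBS-EP+, capture set for theoretical RMax 100 RU; hT40 injected multi-cycle (0.15625–100 nM) or single-cycle (6.25–100 nM), 120 s association, 420 s dissociation, glycine pH 2.0 regeneration. Kinetics and affinity from 1:1 binding model fit.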

htau40 = biological target: T2, htau40 (Homo sapiens, UniProt P10636); experiment: Biacore X100 SPR kinetics of anti-tau mAbs on immobilised htau40; format: binding
T2 construct: Full length tau (hT40)
T2 sequence (P10636 1-441 isoform P10636-8): as above
Method: For anti-tau mAb SPR measurements, htau40 was conjugated to the surface of a CM5 sensor chip using amine coupling as explained previously. Briefly, 2 μg/mL htau40 in 10 mM Sodium acetate buffer (pH 4.0) was passed over the activated chip surface (EDC/NHS) in flow cell 2 for a period for 45 s followed by blocking with 1 M ethanolamine-HCl PH 8.5. Flow cell 1 was set up as reference control and blocked simultaneously. Final immobilisation level of htau40 (Rmax) was approximately 250 RU. Following a minimum of three start-up cycles, increasing concentrations (0.78 nM-25 nM) of the mAb in HBS-EP+ buffer was added at a rate of […] to the chip. The mAb was added for a 120 s association period and 600 s dissociation period followed by a regeneration cycle of 30 s injection of glycine buffer pH 1.5 in between each cycle. Binding responses were analysed in Biacore X100 evaluation software and data fitted to a 1:1 binding model to obtain kinetic and affinity characterisation.
For anti-tau mAb SPR measurements (Biacore X100™) and epitope mapping, the same methodologies described above (see Example 16) were followed. Kinetic rates and equilibrium binding constants of additional anti-tau mAbs and the regions recognised on hT40 are given in the Table 25 below

dGAE aggregates = dGAE aggregates (Homo sapiens, UniProt P10636); experiment: Epitope occlusion assay: dGAE aggregation with/without LMTM, 423 mAb capture ELISA; format: biochemical; conditions: total and supernatant samples; 423 mAb capture
Chain of dGAE aggregates (P10636 614-708): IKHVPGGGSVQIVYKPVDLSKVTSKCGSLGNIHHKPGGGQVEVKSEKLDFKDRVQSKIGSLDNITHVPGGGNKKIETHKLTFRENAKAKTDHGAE
Method: During dGAE aggregation in vitro, scAb binding regions on dGA/dGAE are ‘hidden’ or ‘occluded’ which leads to a loss of immunoreactivity in aggregation samples. Here we have shown the occlusion of binding regions in aggregated dGAE samples and the recovery of immunoreactivity in the presence of LMTM, a tau-aggregation inhibitor. For preparing the aggregates, 10 μl 10 mM DTT was added to 1000 μl 100 μM dGAE and agitated with/without LMTM (1:5 ratio) at 700 rpm for 24 h at 37° C. Following overnight agitation, one third of each sample was kept aside as ‘total’ and the rest was spun down at 16000×g for 30 min and separated into ‘supernatant’ and ‘pellet’. The pellet was then resuspended in half the original volume for further experiments. […] Doubling dilutions of dGAE aggregate ‘total’, ‘supernatant’ and ‘pellet’ samples at 10 μg/ml starting concentration were added to designated wells in doubling dilutions in 1×PBS. dGAE monomer (non-aggregated) was included as assay control. All double dilutions were done in final volumes of 100 μl. This was left to incubate on lab bench for 1 h followed by the addition of test scAbs at 10 μg/ml. Anti-HuCk HRP labelled secondary antibody was added as described previously and ELISA data generated is represented using the graph below.

hT40 = biological target: T3, hT40 (Homo sapiens, UniProt P10636); experiment: Sandwich ELISA limits of detection (LoD) of antibody pairs; format: binding
T3 construct: Full length tau (hT40)
T3 sequence (P10636 1-441 isoform P10636-8): as the sequence (P10636 1-441 isoform P10636-8) above
Text: The diverse panel of high affinity anti-tau antibodies (scAb and mAb formats) were paired in various combinations and tested in a Sandwich (or Capture) ELISA format to calculate their limits of detection (LoD) and their ability to differentiate between different tau species. Biologically, tau exists in 6 different isoforms and is subjected to numerous post translational modifications, some of them playing a significant role in the progression of neurodegeneration.
For Sandwich ELISA using colourimetric detection, 96 well Maxisorp plates were coated with the capture antibody S1D12 mAb at 1 μg/ml for 1 h at RT followed by blocking with 2% MPBS as normal. Full length tau (hT40), at 1 μg/ml starting concentration was added to designated wells and double diluted across rest of the plates and left to incubate at R/T for 1 h. A series of detection scAbs with varying epitope recognition properties were added at 10 μg/ml to designated wells (FIG. 22). For colourimetric detection HRP conjugated anti-HuCk secondary antibody was used and the resulting immunoreaction was developed and absorbance at 450 nm measured as described previously. Cut-off point for a positive binding event was an absorbance value of 0.3 following background subtraction. In order to enhance the assay sensitivity, a chemiluminescent detection method was adopted where 50 μL SuperSignal ELISA Femto Substrate (Thermo Scientific) was added to each well following incubation with anti-HuCK HRP antibody and subsequent washing. The luminescence was read using Clariostar Plus microplate reader. A further modification to this protocol was done where various detection scAbs were directly conjugated with HRP and detected using chemiluminescent protocol as before. The lowest levels of detection achieved using different detection scAbs and a comparison of colourimetric and chemiluminescent methods of detection are shown in Table 28
Similarly, a sandwich ELISA format was set up using S1G2 mAb at 1 μg/ml as the capture antibody and HRP conjugated S1D12 mAb for detection. The assay was conducted using chemiluminescent protocol described above.

[4] = residue numbers of SEQ ID NO: 1 (hT40), CDR Tables 1-11
[5] = Table 27, mAb format, immobilised htau40

B1: CA4: anti-tau core clone, Table 10; SEQ ID NO: 368 (protein)
scFv: QVQLQESGPSLVKPSQTLSLTCTVSGFSLTSYSVYWVRQAPGQALEWISIMYASGRVDYNPALKSRLSITRDTSKSQFSLSLSSVTTEDTAVYYCTRGIENWGPGLLVTVSSEGKSSGASGESKVDDDIQVTQSPSSLSASLTERVSITCRTSQSVNNYLSWYQQKPGQAPKLLIYYATRLYTDVPSRFSGSGSGTDYTLTITSLEADDTATYYCLQYDSTPLAFGGGTNVEIK
modifications: CA4 amino acid sequence
[1]
  Tau proteins/fragments with positive scAb reactivity: hT40, 239-441, 297-390 (dGA)
  Shortest region bound on hT40: 355-367
[1]; Table 26 summary, top scAbs, residues of hT40
  Epitope: 355-367
[1]; residues of hT40
  Detection scAb (Epitope): CA4 (355-367)
[1]; Table 33, core binding scAbs tested in epitope occlusion assays
  Binding regions on hT40: 355-367
[1]; [4]
  Epitope: 355-367
[2]
  critical binding residues: 358 (D), 360 (I), 361 (T), 362 (H) and/or 364 (P)
[3]
  ka: 458100 M⁻¹ s⁻¹
  kd: 0.001654 s⁻¹
htau40; [5]
  ka: 1.02e+06 M⁻¹ s⁻¹
  kd: 0.001276 s⁻¹
htau40; as quoted in Example 32, read-out: affinity
  Kd: 3 nM
dGAE aggregates
  immunoreactivity to dGAE aggregation samples prepared in the presence of LMTM: increase in immunoreactivity

B2: S1G2 mAb: S1G2 reformatted; heavy chain SEQ ID NO: 457, light chain 458 (antibody)
heavy: QVQLQESGPSLVKPSQTLSLTCTVSGFSLTSNSVGWVRQAPGKAPEWVAGIDTDGEEGYNPALNSRLSITRDTSKSQVSLSLSSVTSEDTAVYYCGRSYRADGLAYGYVQAIDYWGPGLLVTVSSAKTTAPSVYPLAPVCGDTTGSSVTLGCLVKGYFPEPVTLTWNSGSLSSGVHTFPAVLQSDLYTLSSSVTVTSSTWPSQSITCNVAHPASSTKVDKKIEPRGPTIKPCPPCKCPAPNLLGGPSVFIFPPKIKDVLMISLSPIVTCVVVDVSEDDPDVQISWFVNNVEVHTAQTQTHREDYNSTLRVVSALPIQHQDWMSGKEFKCKVNNKDLPAPIERTISKPKGSVRAPQVYVLPPPEEEMTKKQVTLTCMVTDFMPEDIYVEWTNNGKTELNYKNTEPVLDSDGSYFMYSKLRVEKKNWVERNSYSCSVVHEGLHNHHTTKSFSRTPGK
light: QAVVTQPSSVSGSLGQRVSITCSGSFIGISSVGWFQQLPGSGLRTIIVASDGRPSGVPDRFSMSKSGNTATLTISSLQAEDEADYFCGSSDRTPYTGVFGSGTRLTVLGGQPKSSPSVTLFPPSSEELETNKATLVCTITDFYPGVVTVDWKVDGTPVTQGMETTQPSKQSNNKYMASSYLTLTARAWERHSSYSCQVTHEGHTVEKSLSRADCS
modifications: S1G2 mAB Heavy Chain; S1G2 mAB Light Chain
hT40; S1G2 mAb capture, HRP labelled S1D12 mAb detection, chemiluminescence
  LOD for hT40: ~1 ng/mL

B3: CA2: anti-tau clone, Table 10; SEQ ID NO: 363 (protein)
chain: QVQLQESGPSLVKPSQTLSLTCTVSGFSLSSVAVNWVRQAPGKVPEWLGGIISNGGTGYNPALKSRLSITRDTSKSQVSLALTHVTTEDTAVYYCGRGVEWEGSMDYLGPGLLVTVSSEGKSSGSGSETKVDDQSVLTQPSSVSGFLGQRVTITCSGSSSNVGAGSYVGWYQQVPGSGLRILIYGATKRASGLPDRFSGSRSGNTATLTISSLQAEDEADYYCVSYQTDFTLVFGSGTRLTVLG
modifications: CA2 amino acid sequence
[1]
  Tau proteins/fragments with positive scAb reactivity: hT40, 1-49, 1-319, 1-155, 186-350, 348-441
  Shortest region bound on hT40: 1-155
[1]; residues of hT40
  Detection scAb (Epitope): CA2 (100-155)
[1]; [4]
  Epitope: 1-155
hT40; S1D12 mAb capture, hT40, SuperSignal ELISA Femto Substrate
  LoD (ng/ml) chemiluminescence detection: 0.37 ng/mL
hT40; S1D12 mAb capture, hT40, detection scAb 10 μg/ml, anti-HuCk HRP
  LoD (ng/ml) colourimetric detection: 6 ng/mL

B4: CA9: anti-tau clone, Tables 2 and 10; SEQ ID NO: 371 (protein)
scFv: QVQLQESGPSLVKPSQTLSLTCTVSGFSLTSNSVGWVRQAPGKAPEWVAGIDTDGEEGYNPALNSRLSITRDTSKSQVSLSLSSVTSEDTAVYYCGRSYRSDGLAYGYVQAIDYWGPGLLVTVSSEGKSSGASGESKVDDQAVLTQPASVSGSLGQRVSITCSGSFIGISSVGWFQQLPGSGLRTIIVASDGRPSGVPDRFSMSKSGNTATLTISSLQAEDEADYFCGSSDRTQYTGVFGSGTRLTVLG
modifications: CA9 amino acid sequence
[1]
  Tau proteins/fragments with positive scAb reactivity: hT40, 239-441, 348-441, 297-390 (dGA)
  Shortest region bound on hT40: 367-379
[2]
  critical binding residues: 370 (K), and/or 374 (H)
dGAE aggregates
  immunoreactivity to dGAE aggregation samples prepared in the presence of LMTM: increase in immunoreactivity
